# Test results reported in the nanobody polyreactivity screen of Harvey et al. (2022).
# Experiment: yeast display, Sf9 membrane polyspecificity reagent, FACS + sequencing; frameworks hold sequencing errors
# Procedure, shortened: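 Polyreactivity labels are assigned by the sorting gate from which each nanobody was recovered. The gates were low and high (top ~1%), set on anti-HA fluorescence for expression and streptavidin fluorescence for reagent binding. Before sorting, galactose-induced (36–48 hours) yeast display cells were stained for 1 hour at 4 °C with 10% biotinylated, detergent-solubilized Sf9 membrane reagent.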
row,Sequence,polyreactivity (PSR sort gate)
1,QVQLVESGGGLVQAGGSLRLSCAASGSTFWEYAMGWYRQAPGKERELVAAITWSTGSTYYADSVKGRFTISRDNAKNTVYLQMNSLKPEDTAVYYCNVDWGYFYTTQGFDYWGQGTQVTVSS,high polyreactivity
2,QVQLVESGGGLVQAGGSLRLSCAASGSTFWFYAMGWYRQAPGKERELVAVISNSGSTYYADSVKGRFTISRDNAKNTVYLQMNSLKPEDTAVYYCNKDGGGDSYWYDYWGQATQVTVSS,low polyreactivity
3,QVQLVESGGGLVQAGGSLRLSCAASGSTFWGNAMGWYRQAPGKERELVATITDGGSTNYADSVKGRFTISRDNAKNTVYLQMNSLKPEDTAVYYCNAEEHYNTYVLHFRPYYVRHDYWGQGTQVTVSS,low polyreactivity
4,QVQLVESGGGLVQAGGSLRLSCAASGSTFWGYTMGWYRPAPGKERELVAAITGSGGSTNYADSVKGRFTISRDNAKNTVNLQMNSLKPEDTAVYYCAADVFTARRRYDYWGQGTQVTVSS,low polyreactivity
5,QVQLVESGGGLVQAGGSLRLSCAASGSTFWIYTMGWYRQAPGKERELVAAITWSGGRTYYADSVKGRFTISRDNAKNTVYLQMNSLKPEDTAVYYCNADVYSYRPSTIQRYVLFDYWGQGTQVTVSS,low polyreactivity
6,QVQLVESGGGLVQAGGSLRLSCAASGSTFWKYAMGWYRQAPGKERELVASIRSGGSTYYADSVKGRFTISRDNAKNTVYLQMNSLKPEDTAVYYCAAKSISVGGGVYGYRYYYWGQGTQVTVSS,high polyreactivity
7,QVQLVESGGGLVQAGGSLRLSCAASGSTFWKYIMGWYRQAPGKERELVAAITTRGGSTYADSVKGRFTISRDNAKNTVYLQMNSLKPEDTAVYYWAATKFWYYGYDYWGQGTQVTVSS,low polyreactivity
8,QVQLVESGGGLVQAGGSLRLSCAASGSTFWPYAMGWSRQAPGKERELVARINSGGNTNYADSVKGRFTISRDNAKNTVYLQMNSLKPEDTAVYYCAVRSLYEPRVYYRWVVVDGNYLGQGTQVTVSS,low polyreactivity
9,QVQLVESGGGLVQAGGSLRLSCAASGSTFWPYAMGWYRQAPGKERELVAAINYSSGSTYYADSVKGRFTISRDNAKNTVYLQMNSLKPEDNAVYYCAKGWYAGYPYDYWGQGTQVTVSS,low polyreactivity
10,QVQLVESGGGLVQAGGSLRLSCAASGSTFWPYAMGWYRQAPGKERELVAAITSSGGSTYYADSVKGRFTISRDNAKNTVYLQRNSLKPEDTAVYYCAADWSNLGAYDYWGQGTQVTVSS,low polyreactivity
11,QVQLVESGGGLVQAGGSLRLSCAASGSTFWSNTMGWYRQAPGKERELVASITTSGGRTYYADSVKGRFTISRDNAKNTVYLQMNSLKPEDTAVYYCAAGGRVRRRYGYWGQGTQVTVSS,high polyreactivity
12,QVQLVESGGGLVQAGGSLRLSCAASGSTFWSYAMGWSRQAPGKERELVAAITDSGGSTYYADSVKGRFTISRDNAKNTVYLQLNSLKPEDTAVYYCAVDSRYTAPLRPLGPFDYWGQGTQVTVSS,low polyreactivity
13,QVQLVESGGGLVQAGGSLRLSCAASGSTFWSYAMGWYRQATGKERELVAAITSGGRTYYADSVKGRFTISRDNAKNTVYLQMNCLKAEDTAVYYCAAEGSVGLYGMIMHYWGQGTQVTVSS,high polyreactivity
14,QVQLVESGGGLVQAGGSLRLSCAASGSTFWTNAMAWYRQSPGKERELVATITYSTGTYADSVKGRFTISRDNAKNTVYLQMNSLKPEDTAVYYCAAEVVAQMNYWGQGTQVTVSS,low polyreactivity
15,QVQLVESGGGLVQAGGSLRLSCAASGSTFWTNAMGWYRQAPGKERELVAVISRGGSTNYADSVKGRFTISRDNAKNTVYLQMNSLKPEDTAVYYCAAASYLYGRYYYWGQGTQVTVSS,high polyreactivity
16,QVQLVESGGGLVQAGGSLRLSCAASGSTFWVNVMGWYRQAPGKERELVATITSGGRTNYADSVKGRFTISRDNAKNTVYLQMNSLKPADTAVYDCAADLKRGDLMDYWGQGTQVTVSS,low polyreactivity
17,QVQLVESGGGLVQAGGSLRLSCAASGSTFWVYAMGWYRQAPGKERELVATISRGGSTNYADSVKGRFTISRDNAKNTVYLQMNSLKPEDTAVYYCAAPRFYGYGYEYWGQGTQVTVSS,low polyreactivity
